Test results from patent US10407469B2, “Programmable polypeptide and nucleic acid nanoparticles” (Northwestern University, priority 2016, dated 2019).

Key:
siRNA [1] = experiment: siRNA binding, electrophoresis gels; settings: compared with P4
Excerpt: (§1) FIGS. 1A-I. Nanoparticles of an engineered polypeptide carrying siRNA (A) C-terminus RNA binding motif CT-dsRBD (in yellow) excised from a canonical double stranded RNA binding domain (dsRBD) and fused to a self-assembly enhancer […] in order to obtain the engineered RNA binding polypeptide (P4) (B) electrophoresis gels of proteins binding siRNA (left). Plot of the bound siRNA (right). (C) Structural change of P4 and CT-dsRBD upon binding to siRNA determined by circular dichroism. (D) Increase in hydrodynamic size of P4 upon siRNA binding determined by DLS. (E) siRNA-P4 nanoparticles in solution imaged by cryo-TEM. Scale bar is 200 nm. […] (H) Salt stability of P4 nanoparticles. (I) Formation of siRNA-P4 nanoparticles in different buffers.
(§2) FIGS. 2A-J. Programmable protein for bioactive siRNA delivery nanoparticles. (A) P4 is functionalized with bioactive peptides, P4-RGD & P4-His6. […] (E) Ellipticity change in function of siRNA concentration (bottom scale) and P4-to-siRNA stoichiometry (top scale). (F) Hydrodynamic size and (G) Zeta potential of P4 nanoparticles. (H & I) Cryo-TEM and (j) AFM micrographs of siRNA-P4 nanoparticles.

siRNA [2] = experiment: Structural change upon siRNA binding, circular dichroism; assay type: physicochemical
Excerpt: as §1, §2

siRNA [3] = experiment: Nanoparticle self-assembly upon siRNA binding (DLS, cryo-TEM); assay type: physicochemical
Excerpt: as §1, §2

Row | binding to siRNA / nucleic acid cargo (siRNA [1]) | Substance | Structural change triggered by siRNA binding (siRNA [2]) | self-assembly into nanoparticles upon binding to nucleic acid (siRNA [3]) | hydrodynamic size upon siRNA binding (siRNA [3]; determined by DLS)
1 | bind to siRNA similarly as P4 | P4-His6: P4 functionalized with bioactive peptide His6 (HHHHHHSIRKLEYEIEELRLRIGGGTFVETGSGTSKQVAKRVAAEKLLTKFKT) | triggered by siRNA binding as in P4 | – | –
2 | bind to siRNA similarly as P4 | P4-RGD: P4 functionalized with bioactive peptide RGD (CRGDCSIRKLEYEIEELRLRIGGGTFVETGSGTSKQVAKRVAAEKLLTKFKT) | triggered by siRNA binding as in P4 | – | –
3 | – | P4: engineered RNA binding polypeptide: CT-dsRBD RNA binding motif fused to a self-assembly enhancer helix (SIRKLEYEIEELRLRIGGGTFVETGSGTSKQVAKRVAAEKLLTKFKT) | – | self-assembles into nanoparticles upon binding to siRNA | Increase
